# Measured values from the RNAGym collection of RNA variant scans (doi:10.7554/elife.80360).
# B1: Hairpin Ribozyme (parent)
# chain: GUCCUCUUUCACGUGCGCGUGAAAGAGAGAAGUGAACCAGAGAAACACACGUUGUGGUAUAUUACCUGGUA
# Variants of: B1
# Assay: self-cleavage, relative activity (ratio to wild type); higher = more cleavage; co-transcriptional
row,Variant,self-cleavage
1,GUCCGCUUUCACGUGCGCGUUAAAGAGAGAAGUGAACCAGAGAAACACACGUUGUGGUAUAUUACCUGGUA [U5G G21U],0.324
2,GUCCGCUUUCACGUGAGCGUGAAAGAGAGAAGUGAACCAGAGAAACACACGUUGUGGUAUAUUACCUGGUA [U5G C16A],0.435
3,GUCCGCUUUAACGUGCGCGUGAAAGAGAGAAGUGAACCAGAGAAACACACGUUGUGGUAUAUUACCUGGUA [U5G C10A],0.235
4,GUCCGCUUUGACGUGCGCGUGAAAGAGAGAAGUGAACCAGAGAAACACACGUUGUGGUAUAUUACCUGGUA [U5G C10G],0.164
5,GUCCGCUUUCACGUGCGCGUGAACGAGAGAAGUGAACCAGAGAAACACACGUUGUGGUAUAUUACCUGGUA [U5G A24C],0.273
6,GUCCCCUUUCACGUGCGCGUGAAAAAGAGAAGUGAACCAGAGAAACACACGUUGUGGUAUAUUACCUGGUA [U5C G25A],0.265
7,GUCCCCUAUCACGUGCGCGUGAAAGAGAGAAGUGAACCAGAGAAACACACGUUGUGGUAUAUUACCUGGUA [U5C U8A],0.197
8,GUCCCCUCUCACGUGCGCGUGAAAGAGAGAAGUGAACCAGAGAAACACACGUUGUGGUAUAUUACCUGGUA [U5C U8C],0.313
9,GUCCCCUUUCACGUGCGCGUGAAAGAGAGAAGUGAACCAGAGAAACACACGUUGUGUUAUAUUACCUGGUA [U5C G57U],0.138
10,GUCCCCUUUCACGUGCGCGUGAAAGAGAGAAGUGAACCAGAGAAACACACGUUGUGGUAUACUACCUGGUA [U5C U62C],0.0289
11,GUCCCCUUUCACGUGCCCGUGAAAGAGAGAAGUGAACCAGAGAAACACACGUUGUGGUAUAUUACCUGGUA [U5C G17C],0.339
12,GUCCGCUUUCACGUUCGCGUGAAAGAGAGAAGUGAACCAGAGAAACACACGUUGUGGUAUAUUACCUGGUA [U5G G15U],0.431
13,GUCCGCUUUCACGUCCGCGUGAAAGAGAGAAGUGAACCAGAGAAACACACGUUGUGGUAUAUUACCUGGUA [U5G G15C],0.249
14,GUCCCCUUUCACGUGCGCGUGAAAGAAAGAAGUGAACCAGAGAAACACACGUUGUGGUAUAUUACCUGGUA [U5C G27A],0.247
15,GUCCGCUUUCACGUGCGCGUGGAAGAGAGAAGUGAACCAGAGAAACACACGUUGUGGUAUAUUACCUGGUA [U5G A22G],0.251
16,GUCCGCUUUCACGUGCGCGUGAAAGAAAGAAGUGAACCAGAGAAACACACGUUGUGGUAUAUUACCUGGUA [U5G G27A],0.216
17,GUCCGCUUUCACGUGCGCGUGAAAGAUAGAAGUGAACCAGAGAAACACACGUUGUGGUAUAUUACCUGGUA [U5G G27U],0.0644
18,GUCCGCUUUCACGUGCGCGUGAAAGAGAGAAGUGAACCAGAGAAACCCACGUUGUGGUAUAUUACCUGGUA [U5G A47C],0.102
19,GUCCCCUUUCACGUGCGCGUGAAAGAGAGAAGUGAACCAGAGAAACACACGUUGUGGGAUAUUACCUGGUA [U5C U58G],0.318

row,Variant,self-cleavage
1,GUCCGCUUUCACGUGCGCGUGAAACAGAGAAGUGAACCAGAGAAACACACGUUGUGGUAUAUUACCUGGUA [U5G G25C],0.214
2,GUCCCCUUUCACGUGCGCGUGAAAGAGAGAAGUGAACGAGAGAAACACACGUUGUGGUAUAUUACCUGGUA [U5C C38G],0.115
3,GUCCCCUUUCACGUGCGCGUGAAAGAGAGAAGUGAACCAGAGAAACACACGGUGUGGUAUAUUACCUGGUA [U5C U52G],0.608
4,GUCCCCUUUCACGUGCGCGUGAAAGAGAGAAGUGAACCAGAGAAACACACGCUGUGGUAUAUUACCUGGUA [U5C U52C],0.636
5,GUCCGCUUUCACGUGCGCGUGAAAGAGAGAAGUGAACCAGAGAAACACACGUUGUGGUAUAUUGCCUGGUA [U5G A64G],0.177
6,GUCCGCUUUCACGUGCGCGUGAAAGAGAGAAGUGAACCAGAGAAACACACGUUGUGGUAUAUUCCCUGGUA [U5G A64C],0.155
7,GUCCGCUUUCACGUGCGCGUGAAAGAGAGAAGUGAUCCAGAGAAACACACGUUGUGGUAUAUUACCUGGUA [U5G A36U],0.0604
8,GUCCCCUUUCACGUGCGCGUGAAAGAGAGAAGUGAACCAGAGAAACACACGUUGUGGUAUAUUACCUUGUA [U5C G68U],0.127
9,GUCCCCUUUCACGUGCGCGUGAAAGAGAGAAGUGAACCAGAGAAACACACGUUGUGGUAUAUUACCUAGUA [U5C G68A],0.14
10,GUCCGCUUUCACGUGCGCGUGAAAGAGAGAAGUGAACCAGAGAACCACACGUUGUGGUAUAUUACCUGGUA [U5G A45C],0.122
11,GUCCGCUUUCACGUGCGCGUGAAAGAGAGAAGUGAACCAGAGAAUCACACGUUGUGGUAUAUUACCUGGUA [U5G A45U],0.0709
12,GUCCCCUUUCACGUGCGCGUGAAAGAGAGAAGUGAACCAGAGAAACAGACGUUGUGGUAUAUUACCUGGUA [U5C C48G],0.0712
13,GUCCCCUUUCACGUGCGCGUGAAAGAGAGAAGUGAACCAGAGAAACAUACGUUGUGGUAUAUUACCUGGUA [U5C C48U],0.0847
14,GUCCGCUUUCACGUGCGCGUGAAAGAGAGAAGUGAACCAGAGAAACACACGUUGUGGUAUGUUACCUGGUA [U5G A61G],0.0248
15,GUCCCCUUUCACGUGCGCGUGAAAGAGAGAAGUGAACCAGAGAAACACACGUUGUGGUAAAUUACCUGGUA [U5C U60A],0.392
16,GUCCGCUUUCACGUGCUCGUGAAAGAGAGAAGUGAACCAGAGAAACACACGUUGUGGUAUAUUACCUGGUA [U5G G17U],0.177
17,GUCCGCUUUCACGUGCACGUGAAAGAGAGAAGUGAACCAGAGAAACACACGUUGUGGUAUAUUACCUGGUA [U5G G17A],0.362
18,GUCCCCUUUCACGUGCGCGUGAAAGAGAGAAGUGAACCAGAGAAAAACACGUUGUGGUAUAUUACCUGGUA [U5C C46A],0.139
19,GUCCCCUUUCACGUGCGCGUGAAAGAGAGAAGUGAACCAGAGAAACACACGUUGUGGUAUAUUACCAGGUA [U5C U67A],0.0797
